Legend:
[1] = biological target: Human TGF-β1 (Acrobiosystems, TG1-H421) (human) (UniProt P01137); test: ELISA, human TGF-β1 coated, mouse anti-human Fc-HRP detection
[2] = biological target: Human TGF-β3 (PeproTech, 100-36E) (human) (UniProt P10600); test: ELISA, human TGF-β3 coated, mouse anti-human Fc-HRP detection
Chain of Human TGF-β3 (PeproTech, 100-36E) (human) (P10600 301-412 limits assumed): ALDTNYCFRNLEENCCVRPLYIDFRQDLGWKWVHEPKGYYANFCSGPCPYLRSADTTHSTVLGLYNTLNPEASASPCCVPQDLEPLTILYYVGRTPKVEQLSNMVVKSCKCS

Chain of Human TGF-β1 (Acrobiosystems, TG1-H421) (human) (P01137 279-390 limits assumed): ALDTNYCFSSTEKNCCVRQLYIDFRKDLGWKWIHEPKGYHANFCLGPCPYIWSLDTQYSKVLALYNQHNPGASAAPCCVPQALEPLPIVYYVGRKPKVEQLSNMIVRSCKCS

## TGF-βRII (Fc fusion)
[1]
  EC50 (read off the curve): 0.3 nM
[2]
  EC50 (read off the curve): 0.2 nM
